In assay [1] the target is 细胞膜表面表达的人CD47蛋白 (human, UniProt Q08722 19-323). In words: cell-based or functional assay.
Assay [2] concerns the target T1, 人CD47蛋白胞外区融合蛋白(hCD47-ECD-6His) (human, UniProt Q08722 19-139, limits assumed).
T1 construct: extracellular domain; Made in FreeStyle 293F cells, purified on a nickel column; not shown: linker peptide-6His (连接肽-6His)
Put plainly: ELISA, hCD47-ECD-6His coated, goat anti-mouse IgG-HRP. A general note: An ELISA detects its analyte on a solid surface through an enzyme-linked reagent.

T1 sequence (Q08722 19-139 limits assumed): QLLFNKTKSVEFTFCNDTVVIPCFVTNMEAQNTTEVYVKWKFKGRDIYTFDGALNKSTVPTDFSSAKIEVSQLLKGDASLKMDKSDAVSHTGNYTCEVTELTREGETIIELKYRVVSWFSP
Sequence of 细胞膜表面表达的人CD47蛋白 (Q08722 19-323): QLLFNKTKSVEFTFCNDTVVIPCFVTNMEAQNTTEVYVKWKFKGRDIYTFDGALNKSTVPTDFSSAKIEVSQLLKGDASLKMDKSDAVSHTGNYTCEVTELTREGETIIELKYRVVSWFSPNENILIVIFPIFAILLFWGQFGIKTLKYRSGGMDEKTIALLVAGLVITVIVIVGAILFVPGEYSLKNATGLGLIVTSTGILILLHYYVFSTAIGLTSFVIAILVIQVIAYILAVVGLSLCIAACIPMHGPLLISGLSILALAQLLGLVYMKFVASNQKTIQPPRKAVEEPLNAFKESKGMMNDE

B1: 抗人CD47单克隆抗体A1 (antibody, V domains shown)
VH: EFQLQQSGPELVKPGASVKMSCKASGYTFTNYVLHWVKQKPGQGLEWIGYFNPYNDDSKYNEKFKGKATLTSDKSSSTAYMELSSLTSEDSAVYYCARGGYYSMDYWGQGTTVTVSS
VL: DVMTQTPLSLPVSLGDQASISCRASQSLAHSNGYTYLQWYLQKPGQSPKLLIYKVSKRFSGVPDRFSGSGSGTDFTLKISRVEAEDLGVYFCSQSTHVPYTFGQGTKVEIK
Turning to B1, in assay [1], the “促吞噬曲线的EC50值 (ATP法, C57BL小鼠腹腔原代巨噬细胞对Raji细胞的吞噬)” value (from here on “促吞噬曲线的EC50值”) was 0.00439 微克/毫升. Also, in assay [2], the response was half-maximal at 0.016 µg/mL (EC50).

B2: 抗人CD47单克隆抗体A6 (antibody, V domains shown)
VH: QVQLQQSGAELVRPGASVTLSCKASGYSFTDSEMHWVKQTPVYGLEWTGVIDPETGNSAYNQKFKGKATLTADKSSNTAYMELRSLTSEDSAVYYCTRGGVFGYPFDYWGQGTTLTVSS
VL: ENVLTQSPAIMAASLGQKVTMTCSATSSVRSSYLHWYQQKSGASPKPLIHRTSNLASGVPARFSGSGSGTSYSLTISSVEAEDDATYYCQQWRGYPYTFGGGTKLEIK
With B2, the “促吞噬曲线的EC50值” value in assay [1] is 0.00568 微克/毫升. In addition, the concentration for a half-maximal effect (EC50) (commonly the concentration at which the effect is half-maximal) in assay [2] came out at 0.01 µg/mL.

B3: 抗人CD47单克隆抗体A2 (antibody, V domains shown)
VH: EVQVQQSGPELVKPGASVKISCKASGYSFTGYFMNWVKQSHGKSLEWIGRINPYNGDTFYNQKFKGKATLTVDKSSSTAHMELLSLTSEDSAVYYCGRGGYGGMDYWGQGTSVTVSS
VL: DVLMTQTPLSLPVSLGDQASISCRSSQSIVHSNGNTYLEWYLQKPGQSPKLLIYKVSNRFSGVPDRFSGSGSGTDFTLKISRVEAEDLGVYYCFQGSHVPYTFGGGTKLEIK
Consider B3, for which, in assay [1], the “促吞噬曲线的EC50值” value is 0.00462 微克/毫升. This molecule also registered an EC50 in assay [2] of 0.007 µg/mL.

B4: 抗人CD47单克隆抗体A5 (antibody, V domains shown)
VH: EVQLQQSGPELVKPGASMRMSCKASGYSFTGYTMHWVKQSHGTNLEWIGLINPYTGGTNYNQKFKGKATLTLDKSSSTAYMELLSLTSEDFAVYYCARMGLAWFAYWGQGTLVTVSA
VL: DVVMTQTPLSLPVSLGDQASISCRSSQSLVHSNGNTYFHWYLQKPGQSPKLLIYKVSNRFSGVPDRFSGSGSGTDFTLKISRVEAEDLGVYFCSQSTHVPYTFGGGTKLEMK
B4: the “促吞噬曲线的EC50值” value in assay [1] was 0.00665 微克/毫升. The same molecule had a half-maximal effective concentration (EC50) in assay [2] of 0.016 µg/mL.

B5: 抗人CD47单克隆抗体A3 (antibody, V domains shown)
VH: QVQLQQPGAELVRPGASVKLSCKASGHTFTNYWMNWIKQRPEQGLEWIGNIDPYDSETHYNQKFKDKAILTVGKSSSTAYMQLSSLTSEDSAVYYCAIWRGYALDYWGQGTSVTVSS
VL: CDVQITQSPSYLAASPGETITINCRASKSISKFLAWYQEKPGKTNNLLIYSGSTLQSGIPSRFSGSGSGTDFTLTISSLEPEDFAMYYCQQHNEYPWTFGGGTKLEIK
As for B5, in assay [1], the “促吞噬曲线的EC50值” value is 0.00391 微克/毫升. A half-maximal effect in assay [2] (EC50) was put at 0.01 µg/mL.

The values are drawn from patent CN111518208A (QICHEN BAITAI BEIJING MEDICAL TECH CO LTD, dated 2020).
